Reference: patent US20130259876A1 (published 2013)

Target: T1, nucleoprotein of influenza A virus (NP383-391) peptide on HLA-B*27:05 (human)
T1 peptide: SRYWAIRTR
Test: activation reporter or marker

B1: GRb (TCR, V domains shown)
Valpha: AQTVTQSQPEMSVQEAETVTLSCTYDTSENNYYLFWYKQPPSRQMILVIRQEAYKQQNATENRFSVNFQKAAKSFSLKISDSQLGDAAMYFCAYFSGGSNYKLTFGKGTLLTVNP
Vbeta: DTEVTQTPKHLVMGMTNKKSLKCEQHMGHRAMYWYKQKAKKPPELMFVYSYEKLSINESVPSRFSPECPNSSLLNLHLHALQPEDSALYLCASSQEVLDTQYFGPGTRLTVL
**Q.** Does B1 bind?
**A.** Result: recognises
